Results reported in US20240117030A1 (Pfizer, published 2024).
Substitutions are numbered along the chain they refer to. Read-outs that look alike come from different tables or passages of the source.

How the values were obtained:
recombinant human IL-13 [1] = molecular target: T1, recombinant human IL-13 (human, UniProt P35225 35-146); assay: cell-based or functional assay
recombinant human IL-13 [2] = molecular target: T1, recombinant human IL-13; assay: KinExA, fixed antigen format
Description: (§1) Samples were prepared in PBS containing 0.1% sodium azide and 1.0 mg/ml BSA. The fixed antigen assay method was used to determine binding affinity. […] Data analysis was performed with KinExA Pro software version 4.3.11 (Sapidyne). […] The ‘drift correction’ fitting option was used when responses varied between replicate injections. Two curves were obtained in independent experiments and analyzed using the ‘n-curve analysis’ tool to obtain global best fit values for the KD and active concentration of IL-13 cytokine. The software reports each best fit value along with a 95% confidence interval.

[3] = molecular target: T2, recombinant cynomolgus monkey IL-13 (cynomolgus monkey, UniProt Q0PW92 19-132); assay: KinExA, fixed antigen format
T2 construct: also called Cyno IL-13
Description: as §1

recombinant human IL-4 [4] = molecular target: T3, recombinant human IL-4 (human, UniProt P05112 25-153); assay: cell-based or functional assay
T3 sequence (looked up): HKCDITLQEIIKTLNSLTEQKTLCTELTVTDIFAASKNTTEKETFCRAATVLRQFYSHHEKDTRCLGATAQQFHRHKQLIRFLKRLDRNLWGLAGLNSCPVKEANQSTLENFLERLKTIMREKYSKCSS

recombinant human IL-13 [5] = molecular target: T1, recombinant human IL-13; assay: cell-based or functional assay; remark: listed apart in the source
[6] = molecular target: T2, recombinant cynomolgus monkey IL-13; assay: cell-based or functional assay
recombinant human IL-4 [7] = molecular target: T3, recombinant human IL-4; assay: cell-based or functional assay; remark: listed apart in the source
recombinant human IL-4 [8] = molecular target: T3, recombinant human IL-4; assay: cell-based or functional assay; remark: listed apart in the source
[9] = molecular target: T4, recombinant cynomolgus monkey IL-4 (cynomolgus monkey, UniProt P79339 25-153); assay: cell-based or functional assay
T4 sequence (looked up): T3 sequence (looked up) with E26K, V29I, F33L

recombinant human IL-4 [10] = molecular target: T3, recombinant human IL-4; assay: KinExA, fixed antigen format
Description: (§2) Samples were prepared in PBS containing 0.1% sodium azide and 1.0 mg/ml BSA. The fixed antigen assay method was used to determine binding affinity. […] Each trispecific and IL-4 cytokine were equilibrated for at least 72 hours at room temperature, then passed through a flow cell containing Polymethylmethacrylate (PMMA) beads coated with anti-hIL-4 Ab-0002 (Pfizer) that contains the same IL-4 binding domain as the trispecifics. […] Data analysis was performed with KinExA Pro software version 4.3.11 (Sapidyne). […] The ‘drift correction’ fitting option was used when responses varied between replicate injections. Two curves were obtained in independent experiments and analyzed using the ‘n-curve analysis’ tool to obtain global best fit values for the KD and active concentration of IL-4 cytokine. The software reports each best fit value along with a 95% confidence interval.

[11] = molecular target: T4, recombinant cynomolgus monkey IL-4; assay: KinExA, fixed antigen format
Description: as §2

recombinant human IL-13 [12] = molecular target: T1, recombinant human IL-13; assay: cell-based or functional assay; remark: listed apart in the source

T2 sequence (Q0PW92 entry or part of it limits assumed): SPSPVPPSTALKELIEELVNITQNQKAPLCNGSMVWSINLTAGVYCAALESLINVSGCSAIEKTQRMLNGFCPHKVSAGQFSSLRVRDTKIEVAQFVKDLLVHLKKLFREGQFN
T1 sequence (P35225 35-146 limits assumed): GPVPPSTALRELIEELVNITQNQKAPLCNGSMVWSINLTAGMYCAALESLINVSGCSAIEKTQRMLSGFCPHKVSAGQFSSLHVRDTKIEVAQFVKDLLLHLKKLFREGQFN

IC50 (median), IL-13 induced CD23 expression on human monocytes (recombinant human IL-13 [1]): 13 pM
Kd (recombinant human IL-13 [2]): 0.266 pM
Kd [3]: 0.581 pM
IC50 (median), IL-4 induced CD23 expression on human monocytes (recombinant human IL-4 [4]): 8.27 pM
IC50 (median), CD23 expression, Human Whole Blood (recombinant human IL-13 [5]): 10.2 pM
IC50 (median), CD23 expression, Peripheral Blood Monocytes (recombinant human IL-13 [5]): 13 pM
IC50 (median), CD23 expression, Human Whole Blood [6]: 41.9 pM
IC50 (median), CD23 expression, Peripheral Blood Monocytes [6]: 31.6 pM
IC50 (median), IL-4 induced CD23 expression on human monocytes (recombinant human IL-4 [7]): 8.27 pM
IC50 (median), CD23 expression, Human Whole Blood (recombinant human IL-4 [8]): 23.6 pM
IC50 (median), CD23 expression, Peripheral Blood Monocytes (recombinant human IL-4 [8]): 8.27 pM
IC50 (median), CD23 expression, Human Whole Blood [9]: 16.4 pM
IC50 (median), CD23 expression, Peripheral Blood Monocytes [9]: 10.1 pM
Kd (recombinant human IL-4 [10]): 0.323 pM
Kd [11]: < 0.661 pM
IC50 (median), IL-13 induced CD23 expression on human monocytes (recombinant human IL-13 [12]): 13 pM
B1: IL413TSLP-1024 (other)
heavy: not shown
chain 1: DIQMTQSPSSLSASVGDRVTITCKASESVDHFGWSLVHWYQQKPGKAPKLLIYRASNLESGVPSRFSGSGSGTDFTLTISSLQPEDFATYYCQQSNEDPWTFGGGTKVEIKRTVAAPSVFIFPPSDEQLKSGTASVVCLLNNFYPREAKVQWKVDNALQSGNSQESVTEQDSKDSTYSLSSTLTLSKADYEKHKVYACEVTHQGLSSPVTKSFNRGECGGGGSEVTLRESGPALVKPTQTLTLTCTFSGFSLSNFGEGLSWIRQPPGKGLEWLAHIYWDDDKRYNPSLKSRLTISKDTSRNQVVLTMTNMDPVDTATYYCARRETVFYWYFDVWGQGTTVTVSSASTKGPSVFPLAPSSKSTSGGTAALGCLVKDYFPEPVTVSWNSGALTSGVHTFPAVLQSSGLYSLSSVVTVPSSSLGTQTYICNVNHKPSNTKVDKKVEPKSCEKTHTCPPCPAPEAAGAPSVFLFPPKPKDTLMISRTPEVTCVVVDVSHEDPEVKFNWYVDGVEVHNAKTKPREEQYNSTYRVVSVLTVLHQDWLNGKEYKCKVSNKALPAPIEKTISKAKGQPREPQVYTLPPSREEMTKNQVSLTCEVKGFYPSDIAVEWESNGQPENNYKTTPPVLDSDGSFFLYSKLTVDKSRWQQGNVFSCSVLHEALHSHYTQKSLSLSPGK
light 1: SYVLTQPPSVSVAPGQTARITCGGNNLGSKSVHWYQQKPGQAPVLVVYDDKDRPSWIPERFSGSNSGNTATLTISRGEAGDEADYYCQVWDSKSDHVVFGGGTKLTVLGQPKAAPSVTLFPPSSEELQANKATLVCLISDFYPGAVTVAWKADSSPVKAGVETTTPSKQSNNKYAASSYLSLTPEQWKSHRSYSCQVTHEGSTVEKTVAPTECS
light 2: DIQMTQSPSSLSASVGDRVTITCRASQSVDEEGDSYMNWYQQKPGKAPKLLIYAASNLESGVPSRFSGSGSGTDFTLTISSLQPEDFATYYCQQSNKDPPTFGGGTKVEIKRTVAAPSVFIFPPSDEQLKSGTASVVCLLNNFYPREAKVQWKVDNALQSGNSQESVTEQDSKDSTYSLSSTLTLSKADYEKHKVYACEVTHQGLSSPVTKSFNRGEC
chain 2: EVQLVESGGGLVQPGGSLRLSCAASGFTFSSYAMSWVRQAPGKGLEWVASISSGDTTYYPDSVKGRFTISRDNAKNSLYLQMNSLRAEDTAVYYCARNEGYYFGLTLWGQGTLVTVSSASTKGPSVFPLAPSSKSTSGGTAALGCLVKDYFPEPVTVSWNSGALTSGVHTFPAVLQSSGLYSLSSVVTVPSSSLGTQTYICNVNHKPSNTKVDKKVEPKSC
notes: Trispecific Tri-Fab-Fc, dual cell, RR-EE, LS; Chains in order: SFab HC(3), DFab LC(1)-HC(2), SFab LC(3), DFab LC(2), modified Fd(1)
